The numbers were not newly measured in publication PMC4153603, which cites them from elsewhere.

One data set concerns the target Kv1.3 (Homo sapiens) (UniProt P22001).
The target of a further data set is Kv1.1 (Homo sapiens) (UniProt Q09470).
UniProt Q09470, sequence (Q09470 whole entry): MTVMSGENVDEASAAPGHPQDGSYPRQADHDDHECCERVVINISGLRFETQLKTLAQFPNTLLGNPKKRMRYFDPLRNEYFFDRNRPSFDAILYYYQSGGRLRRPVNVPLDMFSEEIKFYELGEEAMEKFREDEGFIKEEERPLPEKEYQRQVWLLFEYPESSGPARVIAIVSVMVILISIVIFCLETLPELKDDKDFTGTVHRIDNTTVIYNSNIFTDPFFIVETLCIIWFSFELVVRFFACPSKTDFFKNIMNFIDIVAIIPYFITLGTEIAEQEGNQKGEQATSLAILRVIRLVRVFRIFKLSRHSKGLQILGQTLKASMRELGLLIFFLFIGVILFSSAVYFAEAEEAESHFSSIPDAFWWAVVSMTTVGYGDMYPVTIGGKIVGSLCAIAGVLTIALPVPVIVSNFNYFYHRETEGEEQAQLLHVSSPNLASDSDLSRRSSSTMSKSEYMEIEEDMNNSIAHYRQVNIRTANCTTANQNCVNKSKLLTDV

UniProt P22001, sequence (P22001 whole entry): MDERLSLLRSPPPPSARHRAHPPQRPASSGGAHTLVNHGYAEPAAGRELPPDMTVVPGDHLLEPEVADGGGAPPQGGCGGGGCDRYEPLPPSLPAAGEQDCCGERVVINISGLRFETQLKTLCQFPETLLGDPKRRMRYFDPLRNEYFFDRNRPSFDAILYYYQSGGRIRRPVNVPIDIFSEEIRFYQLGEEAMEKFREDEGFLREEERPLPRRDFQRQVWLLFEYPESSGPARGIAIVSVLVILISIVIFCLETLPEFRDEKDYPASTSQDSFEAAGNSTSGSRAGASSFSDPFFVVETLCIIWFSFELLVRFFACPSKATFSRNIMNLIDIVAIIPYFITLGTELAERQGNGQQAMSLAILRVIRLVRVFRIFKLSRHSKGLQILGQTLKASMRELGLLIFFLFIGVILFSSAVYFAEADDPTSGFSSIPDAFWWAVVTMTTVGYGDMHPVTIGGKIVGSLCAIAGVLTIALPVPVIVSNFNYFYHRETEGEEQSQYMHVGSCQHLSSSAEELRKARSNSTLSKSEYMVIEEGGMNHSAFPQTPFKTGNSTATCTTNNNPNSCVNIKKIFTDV

As for ShK (from UniProt P29187), the results for the dissociation constant Kd with Kv1.3 (Homo sapiens) and with Kv1.1 (Homo sapiens) were 0.01 nM and 0.028 nM, respectively.
